Read-outs that look alike come from different tables or passages of the source. Each block holds one substance with its values, some of them ahead of it.
Columns and labels:
Experiment in all cases: cross-linking; 0.3 mg/ml purified F1 mutant in buffer A (20 mM HEPES pH 7.4, 100 mM KCl, 5 mM MgCl2, 5% glycerol) with trans-ABDM (azobenzene-dimaleimide), at least 2 h at room temperature, quenched with 1 mM DTT; 8% SDS-PAGE, intensity of the α/β dimer band relative to the monomer bands
[1] = target: E. coli F1 ATPase β subunit, cysteine-less, 6xHis-tagged, V409C (E. coli)
[2] = target: E. coli F1 ATPase β subunit, cysteine-less, 6xHis-tagged, V409C (E. coli); remark: listed apart in the source
[3] = target: E. coli F1 ATPase β subunit, cysteine-less, 6xHis-tagged, G412C (E. coli)
[4] = target: E. coli F1 ATPase β subunit, cysteine-less, 6xHis-tagged, S327C (E. coli)
[5] = target: E. coli F1 ATPase β subunit, cysteine-less, 6xHis-tagged, Q324C (E. coli)

crosslinking ratio [1]: 0.3 | crosslinking ratio [2]: 0.4
Substance: E. coli F1 ATPase α subunit, cysteine-less, A380C (from UniProt P0ABB0 1-513) (natural protein)

crosslinking ratio [3]: 0.3
Substance: E. coli F1 ATPase α subunit, cysteine-less, G379C (from UniProt P0ABB0 1-513) (natural protein)

crosslinking ratio [4]: 0.2
Substance: E. coli F1 ATPase α subunit, cysteine-less, N369C (from UniProt P0ABB0 1-513) (natural protein)

crosslinking ratio [5]: 0.2
Substance: E. coli F1 ATPase α subunit, cysteine-less, S338C (from UniProt P0ABB0 1-513) (natural protein)

From paper PMC4974930
